Assay results published in patent US20240034757A1 (OXFORD UNIVERSITY INNOVATION, published 2024).
Substitutions are numbered along the chain they refer to. Names may count otherwise.

How the values were obtained:
[1] = target: T1, CCL19_HUMAN (human, UniProt Q99731 22-98); assay: BLI
T1 sequence: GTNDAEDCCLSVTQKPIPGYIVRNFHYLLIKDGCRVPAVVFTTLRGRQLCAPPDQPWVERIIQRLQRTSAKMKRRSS

[2] = target: T2, CCL23_HUMAN (human, UniProt P55773 22-120); assay: BLI
T2 sequence: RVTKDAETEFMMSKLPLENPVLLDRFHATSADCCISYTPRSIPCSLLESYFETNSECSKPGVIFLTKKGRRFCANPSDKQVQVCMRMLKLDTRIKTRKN

[3] = target: CCL13_HUMAN (human, UniProt Q99616 24-98); assay: BLI
[4] = target: CCL20_HUMAN (human, UniProt P78556 27-96); assay: BLI
[5] = target: T3, CCL21_HUMAN (human, UniProt O00585 24-134); assay: BLI
T3 sequence: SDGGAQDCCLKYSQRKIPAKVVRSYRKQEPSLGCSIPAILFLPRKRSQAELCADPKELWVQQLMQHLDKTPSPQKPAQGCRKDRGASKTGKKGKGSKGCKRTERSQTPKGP

[6] = target: T4, CCL27_HUMAN (human, UniProt Q9Y4X3 25-112); assay: BLI
T4 sequence: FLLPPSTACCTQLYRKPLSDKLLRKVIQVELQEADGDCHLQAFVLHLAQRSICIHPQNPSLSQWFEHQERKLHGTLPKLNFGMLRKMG

[7] = target: T5, CCL16_HUMAN (human, UniProt O15467 24-120); assay: BLI
T5 sequence: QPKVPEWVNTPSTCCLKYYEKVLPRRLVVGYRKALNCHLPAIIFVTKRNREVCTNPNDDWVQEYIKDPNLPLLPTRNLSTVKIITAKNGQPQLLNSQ

[8] = target: T6, CCL24_HUMAN (human, UniProt O00175 27-104); assay: BLI
T6 sequence: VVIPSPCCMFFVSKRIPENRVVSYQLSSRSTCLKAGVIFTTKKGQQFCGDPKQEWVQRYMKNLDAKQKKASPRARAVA

[9] = target: T7, CCL3_HUMAN (human, UniProt P10147 24-92); assay: BLI
T7 sequence: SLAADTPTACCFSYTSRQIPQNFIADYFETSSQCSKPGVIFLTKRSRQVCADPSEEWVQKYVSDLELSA

[10] = target: T8, CCL5_HUMAN (human, UniProt P13501 24-91); assay: BLI
T8 sequence: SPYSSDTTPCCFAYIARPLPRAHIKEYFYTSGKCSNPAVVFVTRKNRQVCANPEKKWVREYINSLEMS

[11] = target: T9, CCL8_HUMAN (human, UniProt P80075 24-99); assay: BLI
T9 sequence (looked up): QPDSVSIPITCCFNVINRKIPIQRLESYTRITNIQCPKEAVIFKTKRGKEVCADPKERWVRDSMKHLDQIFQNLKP

[12] = target: T10, CCL4_HUMAN (human, UniProt P13236 24-92); assay: BLI
T10 sequence: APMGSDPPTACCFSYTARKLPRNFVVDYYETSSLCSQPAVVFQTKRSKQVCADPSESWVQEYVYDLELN

[13] = target: T11, CCL1_HUMAN (human, UniProt P22362 24-96); assay: BLI
T11 sequence: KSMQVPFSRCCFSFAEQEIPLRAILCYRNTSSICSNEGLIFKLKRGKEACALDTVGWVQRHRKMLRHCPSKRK

[14] = target: T12, CCL15_HUMAN (human, UniProt Q16663 22-113); assay: BLI
T12 sequence: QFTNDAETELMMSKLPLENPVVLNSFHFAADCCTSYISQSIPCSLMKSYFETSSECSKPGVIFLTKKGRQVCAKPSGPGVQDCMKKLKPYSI

[15] = target: T13, CCL22_HUMAN (human, UniProt O00626 25-93); assay: BLI
T13 sequence: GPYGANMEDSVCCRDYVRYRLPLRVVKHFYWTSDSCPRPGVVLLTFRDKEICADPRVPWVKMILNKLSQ

[16] = target: T14, CCL17_HUMAN (human, UniProt Q92583 24-94); assay: BLI
T14 sequence: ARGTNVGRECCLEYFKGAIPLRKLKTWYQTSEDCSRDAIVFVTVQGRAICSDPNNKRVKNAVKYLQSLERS

[17] = target: T15, CCL7_HUMAN (human, UniProt P80098 24-99); assay: BLI
[18] = target: CCL11_HUMAN (human, UniProt P51671 24-97); assay: BLI
[19] = target: T16, CCL14_HUMAN (human, UniProt Q16627 22-93); assay: BLI
T16 sequence: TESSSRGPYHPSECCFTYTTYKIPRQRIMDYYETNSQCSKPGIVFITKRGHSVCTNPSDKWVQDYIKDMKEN

[20] = target: T17, CCL4L1_HUMAN (human, UniProt Q8NHW4 24-92); assay: BLI
T17 sequence: T10 sequence with S47G

[21] = target: T18, CCL18_HUMAN (human, UniProt P55774 21-89); assay: BLI
T18 sequence: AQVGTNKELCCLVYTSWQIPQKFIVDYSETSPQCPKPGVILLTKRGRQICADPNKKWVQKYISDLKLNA

[22] = target: T19, CCL3L1_HUMAN (human, UniProt P16619 24-93); assay: BLI
T19 sequence: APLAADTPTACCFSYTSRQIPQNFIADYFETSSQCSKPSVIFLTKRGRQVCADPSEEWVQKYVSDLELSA

[23] = target: T20, CCL2_HUMAN (human, UniProt P13500 24-99); assay: BLI
[24] = target: T7, CCL3_HUMAN; assay: cell-based or functional assay
[25] = target: T8, CCL5_HUMAN; assay: cell-based or functional assay
[26] = target: T9, CCL8_HUMAN; assay: cell-based or functional assay
[27] = target: T15, CCL7_HUMAN; assay: cell-based or functional assay
[28] = target: T19, CCL3L1_HUMAN; assay: cell-based or functional assay
[29] = target: T20, CCL2_HUMAN; assay: cell-based or functional assay
[30] = target: T8, CCL5_HUMAN; assay: BLI, evasin on nickel sensor
[31] = target: T21, CXCL8_HUMAN (human, UniProt P10145 28-99); assay: BLI, sensor already loaded with CCL5
T21 sequence: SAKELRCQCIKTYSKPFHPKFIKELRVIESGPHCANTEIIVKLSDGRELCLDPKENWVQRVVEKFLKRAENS

[32] = target: T22, CXCL1_HUMAN (human, UniProt P09341 35-107); assay: BLI, sensor already loaded with CCL5
T22 sequence: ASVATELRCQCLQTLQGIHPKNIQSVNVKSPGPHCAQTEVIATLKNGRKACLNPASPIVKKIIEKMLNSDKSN

T20 sequence (P13500 24-99 limits assumed): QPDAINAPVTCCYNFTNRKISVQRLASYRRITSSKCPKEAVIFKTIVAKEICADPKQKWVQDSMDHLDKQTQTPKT
T15 sequence (P80098 24-99 limits assumed): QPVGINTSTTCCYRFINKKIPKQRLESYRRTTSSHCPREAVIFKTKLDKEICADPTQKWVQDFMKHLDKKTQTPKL
Chain of CCL13_HUMAN (Q99616 24-98 limits assumed): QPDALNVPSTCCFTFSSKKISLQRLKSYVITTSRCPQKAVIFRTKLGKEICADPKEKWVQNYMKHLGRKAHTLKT
Chain of CCL11_HUMAN (P51671 24-97 limits assumed): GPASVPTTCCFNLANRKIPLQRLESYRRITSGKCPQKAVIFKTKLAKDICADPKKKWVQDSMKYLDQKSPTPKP
Chain of CCL20_HUMAN (P78556 27-96 limits assumed): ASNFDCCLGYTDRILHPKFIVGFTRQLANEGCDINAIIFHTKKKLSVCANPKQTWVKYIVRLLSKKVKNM

B1: P991_AMBCA (other)
chain: ENGEGTTQPDYDNSTDYYNYEDFKCTCPAPHLNNTNGTVMKPIGCYYTCNVTRCTAPDTYPCYNLTEHQAKNLTTSPTTLCAVGNCDHGICVPNGTKELCFKAPNLEE
[1]
  RT: 7 min
[2]
  RT: 32.3 min
[3]
  RT: 290 min
[4]
  RT: 7.03 min
[5]
  RT: 12.1 min
[6]
  RT: 4.14 min
[7]
  RT: 102 min
[8]
  RT: 7.07 min
[9]
  RT: 42.6 min
[10]
  RT: 113 min
[11]
  RT: 10.8 min
[12]
  RT: 32.2 min
[13]
  RT: 5.37 min
[14]
  RT: 1.08 min
[15]
  RT: 16.8 min
[16]
  RT: 10.3 min
[17]
  RT: 508 min
[18]
  RT: 24.9 min
[19]
  RT: 192 min
[20]
  RT: 42.8 min
[21]
  RT: 185 min
[22]
  RT: 52 min
[23]
  RT: 4.17 min
[24]
  IC50, THP1 cell migration: 2.9 nM
[25]
  IC50, THP1 cell migration: 1.84 nM
[26]
  IC50, THP1 cell migration: 2.1 nM
[27]
  IC50, THP1 cell migration: 6.51 nM
[28]
  IC50, THP1 cell migration: 1.17 nM
[29]
  IC50, THP1 cell migration: 4.78 nM

B2: P1156:G4S:P1243 (designed binder)
chain: ADDDNELFTVQYCGMNCTKDEGGTWTGCTGKKEGCKCYHESGKNYGLCLSTEYTDFSQYGNPSDSEIEAAKPKRSDTLSHGGGGSRNHTEDNSTEYYDYEEARCACPARHLNNTNGTVLKLLGCHYFCNGTLCTAPDGYPCYNLTAQQVRTLTTYPNTSCAVGVCMKGTCVKNGTMEQCFKTP
notes: also called two-warhead evasin
[30]
  binding result: binds
[31]
  binding result: binds
[32]
  binding result: binds
